Results: PMC9063426, “MAP kinases differentially bind and phosphorylate NOS3 via two unique NOS3 sites” (FEBS Open Bio, 2022)
Blank lines part the entries; values can stand above or below the binder they belong to. Where no end group is shown, it is not given here. The star is where a group is joined. Biotin = O=C1N[C@H]2[C@H](CS[C@H]2CCCCC(=O)*)N1

B3: NOS3 (bovine), full-length (enzyme, UniProt P29473 1-1205, looked up)
chain: MGNLKSVGQEPGPPCGLGLGLGLGLCGKQGPASPAPEPSRAPAPATPHAPDHSPAPNSPTLTRPPEGPKFPRVKNWELGSITYDTLCAQSQQDGPCTPRCCLGSLVLPRKLQTRPSPGPPPAEQLLSQARDFINQYYSSIKRSGSQAHEERLQEVEAEVASTGTYHLRESELVFGAKQAWRNAPRCVGRIQWGKLQVFDARDCSSAQEMFTYICNHIKYATNRGNLRSAITVFPQRAPGRGDFRIWNSQLVRYAGYRQQDGSVRGDPANVEITELCIQHGWTPGNGRFDVLPLLLQAPDEAPELFVLPPELVLEVPLEHPTLEWFAALGLRWYALPAVSNMLLEIGGLEFSAAPFSGWYMSTEIGTRNLCDPHRYNILEDVAVCMDLDTRTTSSLWKDKAAVEINLAVLHSFQLAKVTIVDHHAATVSFMKHLDNEQKARGGCPADWAWIVPPISGSLTPVFHQEMVNYILSPAFRYQPDPWKGSATKGAGITRKKTFKEVANAVKISASLMGTLMAKRVKATILYASETGRAQSYAQQLGRLFRKAFDPRVLCMDEYDVVSLEHEALVLVVTSTFGNGDPPENGESFAAALMEMSGPYNSSPRPEQHKSYKIRFNSVSCSDPLVSSWRRKRKESSNTDSAGALGTLRFCVFGLGSRAYPHFCAFARAVDTRLEELGGERLLQLGQGDELCGQEEAFRGWAKAAFQASCETFCVGEEAKAAAQDIFSPKRSWKRQRYRLSTQAEGLQLLPGLIHVHRRKMFQATVLSVENLQSSKSTRATILVRLDTAGQEGLQYQPGDHIGICPPNRPGLVEALLSRVEDPPPPTESVAVEQLEKGSPGGPPPSWVRDPRLPPCTLRQALTFFLDITSPPSPRLLRLLSTLAEEPSEQQELETLSQDPRRYEEWKWFRCPTLLEVLEQFPSVALPAPLLLTQLPLLQPRYYSVSSAPNAHPGEVHLTVAVLAYRTQDGLGPLHYGVCSTWLSQLKTGDPVPCFIRGAPSFRLPPDPYVPCILVGPGTGIAPFRGFWQERLHDIESKGLQPAPMTLVFGCRCSQLDHLYRDEVQDAQERGVFGRVLTAFSREPDSPKTYVQDILRTELAAEVHRVLCLERGHMFVCGDVTMATSVLQTVQRILATEGDMELDEAGDVIGVLRDQQRYHEDIFGLTLRTQEVTSRIRTQSFSLQERHLRGAVPWAFDPPGPDTPGP
notes: Nitric oxide synthase 3 (endothelial NOS), bovine, heterologously expressed; called full-length in the abstract and discussion; also called nitric oxide synthase 3; eNOS; source: E. coli BL21(DE3), purified
B5: Active GST-JNK1α1 (SignalChem) (enzyme, UniProt P45983-2 1-384, looked up)
chain: MSRSKRDNNFYSVEIGDSTFTVLKRYQNLKPIGSGAQGIVCAAYDAILERNVAIKKLSRPFQNQTHAKRAYRELVLMKCVNHKNIIGLLNVFTPQKSLEEFQDVYIVMELMDANLCQVIQMELDHERMSYLLYQMLCGIKHLHSAGIIHRDLKPSNIVVKSDCTLKILDFGLARTAGTSFMMTPYVVTRYYRAPEVILGMGYKENVDLWSVGCIMGEMVCHKILFPGRDYIDQWNKVIEQLGTPCPEFMKKLQPTVRTYVENRPKYAGYSFEKLFPDVLFPADSEHNKLKASQARDLLSKMLVIDASKRISVDEALQHPYINVWYDPSEAEAPPPKIPDKQLDEREHTIEEWKELIYKEVMDLEERTKNGVIRGQPSPLAQVQQ
modifications: active (phosphorylated) form, sites not given; biotin by amine crosslinking to NHS-LC-LC-biotin (5:1 biotin to protein)
notes: Biotinylated and held on streptavidin sensors for the NOS3 experiment; also called c-Jun N-terminal kinase; source: bought: SignalChem (JNK1, Lot #X561-2), GST-purified, active

Assays:
Conditions in all cases: both partners purified
[1] = molecular target: p38α, inactive (unphosphorylated), His-purified (UniProt Q16539 1-360); experiment: BLI; N-terminally biotinylated NOS3 peptides on streptavidin sensors, inactive MAP kinases as analytes at 31-1000 nM; 25 °C; PBS with 10% glycerol, 0.005% tween, 1 mM DTT; global one-state association-then-dissociation fit
[2] = molecular target: p38α, inactive (unphosphorylated), His-purified (UniProt Q16539 1-360); experiment: BLI; N-terminally biotinylated NOS3 peptides on streptavidin sensors, inactive MAP kinases as analytes (31 to 1000 nM); 25 °C; PBS with 10% glycerol, 0.005% tween, 1 mM DTT; global one-state association-then-dissociation fit
Target sequence in this assay (Q16539 whole entry, the tested form may be a part): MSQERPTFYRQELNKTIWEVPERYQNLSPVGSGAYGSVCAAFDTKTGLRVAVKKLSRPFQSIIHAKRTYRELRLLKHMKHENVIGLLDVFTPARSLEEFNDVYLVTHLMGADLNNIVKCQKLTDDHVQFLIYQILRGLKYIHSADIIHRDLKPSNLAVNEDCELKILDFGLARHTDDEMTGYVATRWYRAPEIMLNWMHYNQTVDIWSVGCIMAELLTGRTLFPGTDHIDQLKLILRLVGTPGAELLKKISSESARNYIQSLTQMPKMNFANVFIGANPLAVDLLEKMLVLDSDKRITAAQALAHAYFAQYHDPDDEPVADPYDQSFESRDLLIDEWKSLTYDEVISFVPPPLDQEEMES

[3] = molecular target: B5; experiment: BLI; biotinylated active GST-JNK1α1 (or the fusion partner alone as control) on streptavidin sensors, NOS3 as analyte at 25-800 nM; 25 °C; 50 mM Tris pH 7.4, 10 mM NaCl, 10% glycerol, 0.01% Tween-20; global one-state association-then-dissociation fit
[4] = molecular target: T1, Nitric oxide synthase 3 (NOS3), bovine, full-length (bovine, UniProt P29473 1-1205); experiment: BLI; biotinylated active GST-JNK1α1 on streptavidin sensors, NOS3 as analyte (25 to 800 nM); 25 °C; 50 mM Tris pH 7.4, 10 mM NaCl, 10% glycerol, 0.01% Tween-20; global one-state association-then-dissociation fit
T1 construct: Nitric oxide synthase 3 (endothelial NOS), bovine, heterologously expressed in E. coli; called full-length NOS3 in the abstract and discussion; also called eNOS; endothelial nitric oxide synthase; source: E. coli BL21(DE3), purified
T1 sequence (looked up): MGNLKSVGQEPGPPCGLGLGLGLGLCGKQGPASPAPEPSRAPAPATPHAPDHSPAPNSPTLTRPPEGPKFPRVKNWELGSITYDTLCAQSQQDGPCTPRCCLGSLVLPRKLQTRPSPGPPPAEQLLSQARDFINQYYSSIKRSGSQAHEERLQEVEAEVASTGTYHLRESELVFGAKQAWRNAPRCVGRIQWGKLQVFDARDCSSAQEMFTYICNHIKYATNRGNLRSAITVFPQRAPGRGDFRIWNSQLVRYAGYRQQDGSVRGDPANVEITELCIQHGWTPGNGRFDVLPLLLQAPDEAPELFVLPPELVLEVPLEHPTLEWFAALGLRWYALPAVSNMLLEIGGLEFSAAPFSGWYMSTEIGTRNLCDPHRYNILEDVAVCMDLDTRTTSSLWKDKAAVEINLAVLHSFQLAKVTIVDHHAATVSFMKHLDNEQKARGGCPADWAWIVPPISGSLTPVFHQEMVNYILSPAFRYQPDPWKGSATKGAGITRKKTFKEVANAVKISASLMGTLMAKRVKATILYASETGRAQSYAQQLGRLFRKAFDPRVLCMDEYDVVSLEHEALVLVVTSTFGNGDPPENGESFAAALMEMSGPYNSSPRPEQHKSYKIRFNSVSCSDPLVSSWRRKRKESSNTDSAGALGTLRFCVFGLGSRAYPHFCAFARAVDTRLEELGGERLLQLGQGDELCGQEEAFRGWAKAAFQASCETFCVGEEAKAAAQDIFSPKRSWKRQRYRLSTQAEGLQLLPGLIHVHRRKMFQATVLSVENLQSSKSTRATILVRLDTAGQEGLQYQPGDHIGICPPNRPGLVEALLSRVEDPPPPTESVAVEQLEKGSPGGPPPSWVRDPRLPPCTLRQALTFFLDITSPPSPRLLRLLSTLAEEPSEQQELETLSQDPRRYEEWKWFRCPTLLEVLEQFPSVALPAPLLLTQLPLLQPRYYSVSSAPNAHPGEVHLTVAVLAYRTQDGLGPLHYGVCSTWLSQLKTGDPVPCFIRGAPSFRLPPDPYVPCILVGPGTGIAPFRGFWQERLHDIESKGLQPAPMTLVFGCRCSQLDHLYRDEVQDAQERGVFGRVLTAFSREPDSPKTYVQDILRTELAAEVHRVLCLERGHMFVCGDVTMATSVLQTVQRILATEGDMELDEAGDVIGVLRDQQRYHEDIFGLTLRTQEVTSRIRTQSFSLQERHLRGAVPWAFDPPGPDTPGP

[5] = molecular target: B3; experiment: BLI; biotinylated active GST-JNK1α1 (or the fusion partner alone as control) on streptavidin sensors, NOS3 as analyte at 25-800 nM; 25 °C; 50 mM Tris pH 7.4, 10 mM NaCl, 10% glycerol, 0.01% Tween-20; global one-state association-then-dissociation fit

Kd [1]: 31 nM
koff [1]: 0.00053 s⁻¹
kon [1]: 17000 M⁻¹ s⁻¹
B1: NtMAP peptide (NOS3 N-terminal MAP kinase site) (peptide)
peptide: Biotin-CTPRRCLGSLVFPRKLQGRPSPGPPA
modifications: cysteine pairing not given here
notes: Human NOS3, N-terminal MAP kinase (NtMAP) site with the S114 site; source: synthetic peptide, bought: Biomatik

koff [2]: 0.000968 s⁻¹
kon [2]: 15900 M⁻¹ s⁻¹
B2: NOS3 AI peptide (autoinhibitory loop site), biotinylated (peptide)
peptide: Biotin-YKIRFNSISCSDPLVSSWRRKRKESSNTDSA
notes: source: synthetic peptide (Biomatik)

Binder: B3
KD (fit without the 400 nM trace) [3]: 18 nM

koff [4]: 6.19e-05 s⁻¹
B4: Active GST-JNK1α1 (SignalChem), biotinylated (enzyme, UniProt P45983-2 1-384, looked up)
chain: MSRSKRDNNFYSVEIGDSTFTVLKRYQNLKPIGSGAQGIVCAAYDAILERNVAIKKLSRPFQNQTHAKRAYRELVLMKCVNHKNIIGLLNVFTPQKSLEEFQDVYIVMELMDANLCQVIQMELDHERMSYLLYQMLCGIKHLHSAGIIHRDLKPSNIVVKSDCTLKILDFGLARTAGTSFMMTPYVVTRYYRAPEVILGMGYKENVDLWSVGCIMGEMVCHKILFPGRDYIDQWNKVIEQLGTPCPEFMKKLQPTVRTYVENRPKYAGYSFEKLFPDVLFPADSEHNKLKASQARDLLSKMLVIDASKRISVDEALQHPYINVWYDPSEAEAPPPKIPDKQLDEREHTIEEWKELIYKEVMDLEERTKNGVIRGQPSPLAQVQQ
modifications: active (phosphorylated) form; biotinylated by amine crosslinking to NHS-LC-LC-biotin, 5 : 1 molar ratio of biotin to protein
notes: also called c-Jun N-terminal kinase; source: bought: SignalChem (Lot #X561-2)

Binder: B5
Kd [5]: 15 nM
koff [5]: 6.2e-05 s⁻¹
kon [5]: 4110 M⁻¹ s⁻¹

koff [2]: 0.000534 s⁻¹
kon [2]: 17300 M⁻¹ s⁻¹
B6: NOS3 NtMAP peptide (N-terminal MAP kinase site), biotinylated (peptide)
peptide: Biotin-CTPRRCLGSLVFPRKLQGRPSPGPPA
modifications: cysteine pairing not given here
notes: Human NOS3, N-terminal MAP kinase (NtMAP) site with the S114 site, unphosphorylated; source: synthetic peptide (Biomatik)

Kd [1]: 61 nM
koff [1]: 0.00096 s⁻¹
kon [1]: 16000 M⁻¹ s⁻¹
B7: AI peptide (NOS3 autoinhibitory loop site) (peptide)
peptide: Biotin-YKIRFNSISCSDPLVSSWRRKRKESSNTDSA
notes: source: synthetic peptide, bought: Biomatik
